# PMC3953254
# Target: SadB (cytosolic construct without signal peptide, Cys-22 replaced by serine) (S. typhimurium) (UniProt Q8ZL65)
# Assay: crystal structure; SadB at 8 mg/ml in 20 mM MOPS/HCl, pH 7, 50 mM NaCl; sitting drop at 20 °C; reservoir 0.2 M lithium sulfate, 0.1 M Tris, pH 8.5, 20% (w/v) PEG 4000; 2.45 Å
substance,measurement,value
"SadB (cytosolic construct without signal peptide, Cys-22 replaced by serine) (from UniProt Q8ZL65 22-227) (domain or fragment)",stoichiometry N,3
